# Positions count from the first letter of the chain named.
# B1: COV2-2050 (antibody, V domains shown)
# VH: QVQLVQSGAEVKKPGASVKVSCKASGYTFTDYYMHWVRQAPGQGLEWMGWINPNSRGTNYAQKFQGRVTMTRDTSISTVYMELSRLTSDDTAVYYCARVVVLGYGRPNNYYDGRNVWDYWGQGTLVTVSS
# VL: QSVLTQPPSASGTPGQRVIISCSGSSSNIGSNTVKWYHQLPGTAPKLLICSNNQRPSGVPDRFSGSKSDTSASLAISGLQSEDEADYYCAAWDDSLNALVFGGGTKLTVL
# B2: COV2-2113 (antibody, V domains shown)
# VH: EVQLVESGGGLIQPGGSLRLSCAASEVTVSSNYMSWVRQAPGKGLEWVSLIYSGGTTYYADSVKGRFTISRDNSKNTLYLQMNSLRAEDTAVYYCARDFLRWHDLWGQGTLVTVSS
# VL: DIQMTQSPSSLSASVGDRVTITCQASQDINNYLNWYQQKPGKAPKLLIYDASNLETGVPLRFSGSGSGTDFIFTISSLQPEDIATYYCQQYDNLPPVFGGGTKVEIK
# B3: COV2-2132 (antibody, V domains shown)
# VH: B2 VH
# VL: B2 VL with I72T
# B4: COV2-2068 (antibody, V domains shown)
# VH: EVQLVESGGGLVQPGGSLRLSCAASGFTVSSNYMSWVRQAPGKGLEWVSVIYPGGSAFYADSVKGRFTISRHNSNNTLCLQMNSLRTEDTAVYYCARSYDILTGYRDAFDIWGQGTMVTVSS
# VL: QSVLTQPPSVSGAPGQRVTISCTGSSSNIGSGSDVHWYQQLPGTAPKLLIYGNTNRPSGVPDRFSGSKSGTSASLAITGLQAEDEADYYCQSYDSRLSGFVVFGGGTKLTVL
# B5: COV2-2046 (antibody, V domains shown)
# VH: EVQLVESGGGLVQPGRSLRLSCAASGFTFDDYAMHWVRQAPGKGLEWVSGISWNSGSIAYTDSVKGRFTISRDNAKNSLYLQMNSLRAEDTALYYCAKAHSTGHQYYYGMDVWGQGTTVTVSS
# VL: DIQMTQSPSSLSASVGDRVTITCRASQSISSFLNWYQQKPGKAPKLLIYAAFNLQSGVPSRFSGSGSGTDFTLTISSLQSEDFATYYCQQSYNTPYTFGQGTKLEIK
# B6: COV2-2098 (antibody, V domains shown)
# VH: EVQLLESGGGLIQPGGSLRLSCAASGFTFSNYAMSWVRQAPGKGLEWVSGIISTSGGATYNADSVRGRFTTSRDNSKNILYLQMNSLRGEDTAVYYCVKGLFDWFPLWGQGTMVTVSS
# VL: DIVMTQSPATLSVSPGERAILSCRASQSVRSNLAWYQQKPGQAPRLLISGASTRATAIPARFSGSGSGTEFTLTITSLQSEDCAVYYCHQYNNWPQTFGQGTKVEIK
# B7: COV2-2082 (antibody, V domains shown)
# VH: EVQLVESGGGVVRPGGSLRLSCAASGFIFDDYDMTWVRQAPGKGLEWVSGISWNGGNTGYADSVKGRFTISRDNAKNSLYLQMNSLRAEDTALYHCAVIMSPIPRYSGYDWAGGAFDIWGQGTMVTVSS
# VL: SSELTQDPAVSVALGQTVRITCQGDSLRSYYASWYQQKPGQVPILVIYDKNNRPSGIPDRFSGSSSGNTASLTITGAQAEDEADYYCNSRDSSGNAVVFGGGTKLTVL
# B8: COV2-2103 (antibody, V domains shown)
# VH: EVQLVESGGGLVQPGGSLRLSCAASGFTFSRHWMTWVRQAPGKGLEWVANIKQDGSEKYYVDSVKGRLTISRDNAKNSLYLQMNSLRAEDTAVYYCARLGFYYGGADYWGQGTLVTVSS
# VL: NFMLTQPHSVSESPGKTVTISCTGSSGSIASNYVQWYQQRPGSAPTTVISEDNQRPSGVPDRFSGSIDSSSNSASLTISGLKTEDEADYYCQSYDGINRAWVFGGGTKLTVL
# B9: COV2-2961 (antibody, V domains shown)
# VH: EVQLVQSGPEVKKPGTSVKVSCKASGFTFMSSAVQWVRQARGQRLEWIGWIVIGSGNTNYAQKFQERVTITRDMSTSTAYMELSSLRSEDTAVYYCAAPYCSSISCNDGFDIWGQGTMVTVSS
# VL: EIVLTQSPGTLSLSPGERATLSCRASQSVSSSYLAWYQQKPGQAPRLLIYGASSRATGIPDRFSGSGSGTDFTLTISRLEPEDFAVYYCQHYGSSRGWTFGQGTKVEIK
# Legend:
# [1] = target: T1, SRBD subdomain of SARS-CoV-2 S protein (SARS-CoV-2, UniProt P0DTC2 319-541); assay: ELISA, purified IgG
# SARS-CoV-2 NTD = target: T2, SARS-CoV-2 NTD (SARS-CoV-2, UniProt P0DTC2 14-305); assay: ELISA, purified IgG
# T2 construct: domain: NTD
# [2] = target: T3, SARS-CoV-2 spike (S) protein on authentic SARS-CoV-2 virus (strain WA1/2020) (SARS-CoV-2, UniProt P0DTC2 14-1273); assay: cell-based or functional assay
# [3] = target: T1, SRBD subdomain of SARS-CoV-2 S protein; assay: ELISA on coated SRBD
# [4] = target: T3, SARS-CoV-2 spike (S) protein on …; assay: cell-based or functional assay; remark: listed apart in the source
Binder,OD 450 nm [1],OD 450 nm (SARS-CoV-2 NTD),"Nano-luciferase virus reduction test, SARS-CoV-2, IC50 [2]","SARS-CoV-2 focus reduction test, IC50 [2]",EC50 [3],"Neutralization IC50 (FRNT, authentic SARS-CoV-2 WA1/2020) [4]"
B1,4.3 OD 450 nm,0.12 OD 450 nm,< 0.05 µg/mL,0.025 µg/mL,0.0016 µg/mL,0.08 µg/mL
B2,4.4 OD 450 nm,,< 0.3 µg/mL,0.427 µg/mL,0.0006 µg/mL,1.04 µg/mL
B3,,0.15 OD 450 nm,< 0.3 µg/mL,0.673 µg/mL,,
B4,4.3 OD 450 nm,0.1 OD 450 nm,< 0.3 µg/mL,0.864 µg/mL,0.0012 µg/mL,0.478 µg/mL
B5,,0.09 OD 450 nm,< 0.1 µg/mL,0.171 µg/mL,,
B6,4.2 OD 450 nm,0.15 OD 450 nm,< 0.1 µg/mL,0.776 µg/mL,0.0007 µg/mL,1.03 µg/mL
B7,4.3 OD 450 nm,0.11 OD 450 nm,< 0.2 µg/mL,0.302 µg/mL,0.0006 µg/mL,0.204 µg/mL
B8,4.3 OD 450 nm,0.12 OD 450 nm,,> 1 µg/mL,0.0011 µg/mL,1.97 µg/mL
B9,,,,0.03 µg/mL,,

# From patent publication US20230122364A1 (VANDERBILT UNIVERSITY, published 2023)
